Legend:
HeLa Kyoto [1] = experiment: solubility in G1/S (NP-40 vs SDS abundance) (log2 ratio); higher = more soluble; details: cell cycle stage: G1/S
HeLa Kyoto [2] = experiment: melting temperature (median over replicates), in situ; higher = more thermally stable
HeLa Kyoto [3] = experiment: solubility change mitosis vs G1/S (difference of NP-40 vs SDS log2 ratios) (log2 ratio difference); higher = more soluble in mitosis
HeLa Kyoto [4] = experiment: thermal stability score vs G1/S (z-score of summed log2 fold changes over temperatures); higher = more thermally stable than in G1/S
[5] = cell cycle stage: early G1 (4.5 h after nocodazole release)
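Throughout, for melting temperature (median over replicates), in situ: HeLa Kyoto cells synchronized by double thymidine or nocodazole block, proteins quantified by TMT10plex mass spectrometry, three independent biological replicates.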
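Throughout, for solubility change mitosis vs G1/S (difference of NP-40 vs SDS log2 ratios): synchronized HeLa Kyoto cells (double thymidine block for G1/S, nocodazole release for mitosis), protein amounts in NP-40 versus SDS lysates quantified by mass spectrometry, three biological replicates.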
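Throughout, for solubility in G1/S (NP-40 vs SDS abundance): HeLa Kyoto cells arrested at G1/S by double thymidine block, proteins quantified by TMT10plex mass spectrometry in mild NP-40 versus SDS extracts, three biological replicates.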
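Throughout, for thermal stability score vs G1/S (z-score of summed log2 fold changes over temperatures): synchronized HeLa Kyoto cells, proteins quantified by TMT10plex mass spectrometry, three biological replicates, mitosis taken 0.5 h after nocodazole release, G1/S directly after double thymidine block.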

PTBP1, sequence (chain, as listed by the source): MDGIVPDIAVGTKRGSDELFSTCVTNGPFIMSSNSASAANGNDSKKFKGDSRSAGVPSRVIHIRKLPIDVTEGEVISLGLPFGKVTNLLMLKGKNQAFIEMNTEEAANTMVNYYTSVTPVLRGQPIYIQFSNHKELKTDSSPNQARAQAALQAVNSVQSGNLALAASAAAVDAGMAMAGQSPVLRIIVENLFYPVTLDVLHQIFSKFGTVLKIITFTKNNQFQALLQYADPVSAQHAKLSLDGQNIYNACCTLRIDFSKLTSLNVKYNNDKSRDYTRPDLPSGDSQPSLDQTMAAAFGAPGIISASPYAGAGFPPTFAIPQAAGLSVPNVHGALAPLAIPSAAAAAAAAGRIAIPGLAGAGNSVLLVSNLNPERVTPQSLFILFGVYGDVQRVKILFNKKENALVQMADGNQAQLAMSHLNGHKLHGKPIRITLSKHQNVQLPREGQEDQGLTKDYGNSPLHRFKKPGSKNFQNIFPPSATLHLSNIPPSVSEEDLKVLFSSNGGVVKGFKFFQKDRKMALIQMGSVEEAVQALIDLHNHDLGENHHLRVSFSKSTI

Substance	solubility in G1/S (log2) (HeLa Kyoto [1])	melting temperature (HeLa Kyoto [2]; cell cycle stage: G1/S)	melting temperature (HeLa Kyoto [2]; cell cycle stage: mitosis)	solubility change mitosis (log2) (HeLa Kyoto [3])	thermal stability score (HeLa Kyoto [4]; [5])	thermal stability score (HeLa Kyoto [4]; cell cycle stage: mitosis)
MLLPAPALRRALLSRPWTGAGLRWKHTSSLKVANEPVLAFTQGSPERDALQKALKDLKGRMEAIPCVVGDEEVWTSDVQYQVSPFNHGHKVAKFCYADKSLLNKAIEAALAARKEWDLKPIADRAQIFLKAADMLSGPRRAEILAKTMVGQGKTVIQAEIDAAAELIDFFRFNAKYAVELEGQQPISVPPSTNSTVYRGLEGFVAAISPFNFTAIGGNLAGAPALMGNVVLWKPSDTAMLASYAVYRILREAGLPPNIIQFVPADGPLFGDTVTSSEHLCGINFTGSVPTFKHLWKQVAQNLDRFHTFPRLAGECGGKNFHFVHRSADVESVVSGTLRSAFEYGGQKCSACSRLYVPHSLWPQIKGRLLEEHSRIKVGDPAEDFGTFFSAVIDAKSFARIKKWLEHARSSPSLTILAGGKCDDSVGYFVEPCIVESKDPQEPIMKEEIFGPVLSVYVYPDDKYKETLQLVDSTTSYGLTGAVFSQDKDVVQEATKVLRNAAGNFYINDKSTGSIVGQQPFGGARASGTNDKPGGPHYILRWTSPQVIKETHKPLGDWSYAYMQ [ALDH4A1]	0.0698	51.8 °C	50.7 °C	-0.0143	-0.222	-0.434
MGFGDLKSPAGLQVLNDYLADKSYIEGYVPSQADVAVFEAVSSPPPADLCHALRWYNHIKSYEKEKASLPGVKKALGKYGPADVEDTTGSGATDSKDDDDIDLFGSDDEEESEEAKRLREERLAQYESKKAKKPALVAKSSILLDVKPWDDETDMAKLEECVRSIQADGLVWGSSKLVPVGYGIKKLQIQCVVEDDKVGTDMLEEQITAFEDYVQSMDVAAFNKI [EEF1B2]	0.522	50.7 °C	50.6 °C	0.236	-1.43	-1.91
MLNMWKVRELVDKATNVVMNYSEIESKVREATNDDPWGPSGQLMGEIAKATFMYEQFPELMNMLWSRMLKDNKKNWRRVYKSLLLLAYLIRNGSERVVTSAREHIYDLRSLENYHFVDEHGKDQGINIRQKVKELVEFAQDDDRLREERKKAKKNKDKYVGVSSDSVGGFRYSERYDPEPKSKWDEEWDKNKSAFPFSDKLGELSDKIGSTIDDTISKFRRKDREDSPERCSDSDEEKKARRGRSPKGEFKDEEETVTTKHIHITQATETTTTRHKRTANPSKTIDLGAAAHYTGDKASPDQNASTHTPQSSVKTSVPSSKSSGDLVDLFDGTSQSTGGSADLFGGFADFGSAAASGSFPSQVTATSGNGDFGDWSAFNQAPSGPVASSGEFFGSASQPAVELVSGSQSALGPPPAASNSSDLFDLMGSSQATMTSSQSMNFSMMSTNTVGLGLPMSRSQNTDMVQKSVSKTLPSTWSDPSVNISLDNLLPGMQPSKPQQPSLNTMIQQQNMQQPMNVMTQSFGAVNLSSPSNMLPVRPQTNALIGGPMPMSMPNVMTGTMGMAPLGNTPMMNQSMMGMNMNIGMSAAGMGLTGTMGMGMPNIAMTSGTVQPKQDAFANFANFSK [CLINT1]	-0.186	51.6 °C	51.9 °C	-0.108	1.76	3.07
MELSDANLQTLTEYLKKTLDPDPAIRRPAEKFLESVEGNQNYPLLLLTLLEKSQDNVIKVCASVTFKNYIKRNWRIVEDEPNKICEADRVAIKANIVHLMLSSPEQIQKQLSDAISIIGREDFPQKWPDLLTEMVNRFQSGDFHVINGVLRTAHSLFKRYRHEFKSNELWTEIKLVLDAFALPLTNLFKATIELCSTHANDASALRILFSSLILISKLFYSLNFQDLPEFFEDNMETWMNNFHTLLTLDNKLLQTDDEEEAGLLELLKSQICDNAALYAQKYDEEFQRYLPRFVTAIWNLLVTTGQEVKYDLLVSNAIQFLASVCERPHYKNLFEDQNTLTSICEKVIVPNMEFRAADEEAFEDNSEEYIRRDLEGSDIDTRRRAACDLVRGLCKFFEGPVTGIFSGYVNSMLQEYAKNPSVNWKHKDAAIYLVTSLASKAQTQKHGITQANELVNLTEFFVNHILPDLKSANVNEFPVLKADGIKYIMIFRNQVPKEHLLVSIPLLINHLQAESIVVHTYAAHALERLFTMRGPNNATLFTAAEIAPFVEILLTNLFKALTLPGSSENEYIMKAIMRSFSLLQEAIIPYIPTLITQLTQKLLAVSKNPSKPHFNHYMFEAICLSIRITCKANPAAVVNFEEALFLVFTEILQNDVQEFIPYVFQVMSLLLETHKNDIPSSYMALFPHLLQPVLWERTGNIPALVRLLQAFLERGSNTIASAAADKIPGLLGVFQKLIASKANDHQGFYLLNSIIEHMPPESVDQYRKQIFILLFQRLQNSKTTKFIKSFLVFINLYCIKYGALALQEIFDGIQPKMFGMVLEKIIIPEIQKVSGNVEKKICAVGITKLLTECPPMMDTEYTKLWTPLLQSLIGLFELPEDDTIPDEEHFIDIEDTPGYQTAFSQLAFAGKKEHDPVGQMVNNPKIHLAQSLHKLSTACPGRVPSMVSTSLNAEALQYLQGYLQAASVTLL [CSE1L]	-0.0863	50.4 °C	49.5 °C	-0.225	1.44	2.55
PTBP1	0.378	49.1 °C	48.6 °C	0.0339	5.29	9.17
MADNLPTEFDVVIIGTGLPESILAAACSRSGQRVLHIDSRSYYGGNWASFSFSGLLSWLKEYQQNNDIGEESTVVWQDLIHETEEAITLRKKDETIQHTEAFCYASQDMEDNVEEIGALQKNPSLGVSNTFTEVLDSALPEESQLSYFNSDEMPAKHTQKSDTEISLEVTDVEESVEKEKYCGDKTCMHTVSDKDGDKDESKSTVEDKADEPIRNRITYSQIVKEGRRFNIDLVSKLLYSQGLLIDLLIKSDVSRYVEFKNVTRILAFREGKVEQVPCSRADVFNSKELTMVEKRMLMKFLTFCLEYEQHPDEYQAFRQCSFSEYLKTKKLTPNLQHFVLHSIAMTSESSCTTIDGLNATKNFLQCLGRFGNTPFLFPLYGQGEIPQGFCRMCAVFGGIYCLRHKVQCFVVDKESGRCKAIIDHFGQRINAKYFIVEDSYLSEETCSNVQYKQISRAVLITDQSILKTDLDQQTSILIVPPAEPGACAVRVTELCSSTMTCMKDTYLVHLTCSSSKTAREDLESVVKKLFTPYTETEINEEELTKPRLLWALYFNMRDSSGISRSSYNGLPSNVYVCSGPDCGLGNEHAVKQAETLFQEIFPTEEFCPPPPNPEDIIFDGDDKQPEAPGTNNVVMAKLESSEESKNLESPEKHLQN [CHML]	-0.076	54 °C	53.7 °C	-0.178	-0.83	-1.67
CSPG4	0.0261	54.8 °C	55 °C	0.0955	-3.28	0.175
MDRSAEFRKWKAQCLSKADLSRKGSVDEDVVELVQFLNMRDQFFTTSSCAGRILLLDRGINGFEVQKQNCCWLLVTHKLCVKDDVIVALKKANGDATLKFEPFVLHVQCRQLQDAQILHSMAIDSGFRNSGITVGKRGKTMLAVRSTHGLEVPLSHKGKLMVTEEYIDFLLNVANQKMEENKKRIERFYNCLQHALERETMTNLHPKIKEKNNSSYIHKKKRNPEKTRAQCITKESDEELENDDDDDLGINVTIFPEDY [TYW3]	0.102	55 °C	54.9 °C	-0.194	-0.67	-1.25
MLGLLVALLALGLAVFALLDVWYLVRLPCAVLRARLLQPRVRDLLAEQRFPGRVLPSDLDLLLHMNNARYLREADFARVAHLTRCGVLGALRELRAHTVLAASCARHRRSLRLLEPFEVRTRLLGWDDRAFYLEARFVSLRDGFVCALLRFRQHLLGTSPERVVQHLCQRRVEPPELPADLQHWISYNEASSQLLRMESGLSDVTKDQ [THEM6]	-0.64	55.3 °C	53.8 °C	-0.052	-1.92	-2.82
MALQGISVVELSGLAPGPFCAMVLADFGARVVRVDRPGSRYDVSRLGRGKRSLVLDLKQPRGAAVLRRLCKRSDVLLEPFRRGVMEKLQLGPEILQRENPRLIYARLSGFGQSGSFCRLAGHDINYLALSGVLSKIGRSGENPYAPLNLLADFAGGGLMCALGIIMALFDRTRTGKGQVIDANMVEGTAYLSSFLWKTQKLSLWEAPRGQNMLDGGAPFYTTYRTADGEFMAVGAIEPQFYELLIKGLGLKSDELPNQMSMDDWPEMKKKFADVFAEKTKAEWCQIFDGTDACVTPVLTFEEVVHHDHNKERGSFITSEEQDVSPRPAPLLLNTPAIPSFKRDPFIGEHTEEILEEFGFSREEIYQLNSDKIIESNKVKASL [AMACR]	0.155	52.1 °C	52.5 °C	-0.0545	0.0452	0.6
MADKQISLPAKLINGGIAGLIGVTCVFPIDLAKTRLQNQQNGQRVYTSMSDCLIKTVRSEGYFGMYRGAAVNLTLVTPEKAIKLAANDFFRHQLSKDGQKLTLLKEMLAGCGAGTCQVIVTTPMEMLKIQLQDAGRIAAQRKILAAQGQLSAQGGAQPSVEAPAAPRPTATQLTRDLLRSRGIAGLYKGLGATLLRDVPFSVVYFPLFANLNQLGRPASEEKSPFYVSFLAGCVAGSAAAVAVNPCDVVKTRLQSLQRGVNEDTYSGILDCARKILRHEGPSAFLKGAYCRALVIAPLFGIAQVVYFLGIAESLLGLLQDPQA [SLC25A22]	0.299	56.1 °C	55.4 °C	-0.111	0.207	-1.95
MRSLGANMAAALRAAGVLLRDPLASSSWRVCQPWRWKSGAAAAAVTTETAQHAQGAKPQVQPQKRKPKTGILMLNMGGPETLGDVHDFLLRLFLDRDLMTLPIQNKLAPFIAKRRTPKIQEQYRRIGGGSPIKIWTSKQGEGMVKLLDELSPNTAPHKYYIGFRYVHPLTEEAIEEMERDGLERAIAFTQYPQYSCSTTGSSLNAIYRYYNQVGRKPTMKWSTIDRWPTHHLLIQCFADHILKELDHFPLEKRSEVVILFSAHSLPMSVVNRGDPYPQEVSATVQKVMERLEYCNPYRLVWQSKVGPMPWLGPQTDESIKGLCERGRKNILLVPIAFTSDHIETLYELDIEYSQVLAKECGVENIRRAESLNGNPLFSKALADLVHSHIQSNELCSKQLTLSCPLCVNPVCRETKSFFTSQQL [FECH]	0.25	51.9 °C	53.4 °C	-0.0764	-0.37	-0.327
MATAAETSASEPEAESKAGPKADGEEDEVKAARTRRKVLSRAVAAATYKTMGPAWDQQEEGVSESDGDEYAMASSAESSPGEYEWEYDEEEEKNQLEIERLEEQLSINVYDYNCHVDLIRLLRLEGELTKVRMARQKMSEIFPLTEELWLEWLHDEISMAQDGLDREHVYDLFEKAVKDYICPNIWLEYGQYSVGGIGQKGGLEKVRSVFERALSSVGLHMTKGLALWEAYREFESAIVEAARLEKVHSLFRRQLAIPLYDMEATFAEYEEWSEDPIPESVIQNYNKALQQLEKYKPYEEALLQAEAPRLAEYQAYIDFEMKIGDPARIQLIFERALVENCLVPDLWIRYSQYLDRQLKVKDLVLSVHNRAIRNCPWTVALWSRYLLAMERHGVDHQVISVTFEKALNAGFIQATDYVEIWQAYLDYLRRRVDFKQDSSKELEELRAAFTRALEYLKQEVEERFNESGDPSCVIMQNWARIEARLCNNMQKARELWDSIMTRGNAKYANMWLEYYNLERAHGDTQHCRKALHRAVQCTSDYPEHVCEVLLTMERTEGSLEDWDIAVQKTETRLARVNEQRMKAAEKEAALVQQEEEKAEQRKRARAEKKALKKKKKIRGPEKRGADEDDEKEWGDDEEEQPSKRRRVENSIPAAGETQNVEVAAGPAGKCAAVDVEPPSKQKEKAASLKRDMPKVLHDSSKDSITVFVSNLPYSMQEPDTKLRPLFEACGEVVQIRPIFSNRGDFRGYCYVEFKEEKSALQALEMDRKSVEGRPMFVSPCVDKSKNPDFKVFRYSTSLEKHKLFISGLPFSCTKEELEEICKAHGTVKDLRLVTNRAGKPKGLAYVEYENESQASQAVMKMDGMTIKENIIKVAISNPPQRKVPEKPETRKAPGGPMLLPQTYGARGKGRTQLSLLPRALQRPSAAAPQAENGPAAAPAVAAPAATEAPKMSNADFAKLFLRK [SART3]	-0.112	48.2 °C	49.2 °C	-0.103	1.98	4.74

Reference: the supplement of paper PMC5998384
